Test results: patent US20220218614A1, “IONIZABLE CATIONIC LIPIDS AND LIPID NANOPARTICLES, AND METHODS OF SYNTHESIS AND USE THEREOF” (Tidal Therapeutics, Inc., priority 2020, published 2022)

B1: Lorvotuzumab: anti-CD56 Lorvotuzumab Fab bDS, SEQ ID NO: 32 and 33 (antibody)
heavy: QVQLVESGGGVVQPGRSLRLSCAASGFTFSSFGMHWVRQAPGKGLEWVAYISSGSFTIYYADSVKGRFTISRDNSKNTLYLQMNSLRAEDTAVYYCARMRKGYAMDYWGQGTLVTVSSASTKGPSVFPLAPSSKSTSGGTAALGCLVKDYFPEPVTVSWNSGALTSGVHTCPAVLQSSGLYSLSSVVTVPSSSLGTQTYICNVNHKPSNTKVDKKVEPKSSDKTHTCHHHHHH
light: DVVMTQSPLSLPVTLGQPASISCRSSQIIIHSDGNTYLEWFQQRPGQSPRRLIYKVSNRFSGVPDRFSGSGSGTDFTLKISRVEAEDVGVYYCFQGSHVPHTFGQGTKVEIKRTVAAPSVFIFPPSDEQLKSGTASVVCLLNNFYPREAKVQWKVDNALQSGNSQESVTEQDSKDSTYSLCSTLTLSKADYEKHKVYACEVTHQGLSSPVTKSFNRGES
B2: A3: anti-CD56 A3 Fab bDS, SEQ ID NO: 30 and 31 (antibody)
heavy: EVQLVQSGAEVKKPGSSVKVSCKASGGTFTGYYMHWVRQAPGQGLEWMGWINPNSGGTNYAQKFQGRVTMTRDTSISTAYMELSRLRSDDTAVYYCARDLSSGYSGYFDYWGQGTLVTVSSASTKGPSVFPLAPSSKSTSGGTAALGCLVKDYFPEPVTVSWNSGALTSGVHTCPAVLQSSGLYSLSSVVTVPSSSLGTQTYICNVNHKPSNTKVDKKVEPKSSDKTHTCGGHHHHHH
light: DVVMTQSPLSLPVTPGEPASISCRSSQSLLHSNGYNFLDWYLQKPGQSPQLLIYLGSNRASGVPDRFSGSGSGTDFTLKISRVEADDVGVYYCMQSLQTPWTFGHGTKVEIKRTVAAPSVFIFPPSDEQLKSGTASVVCLLNNFYPREAKVQWKVDNALQSGNSQESVTEQDSKDSTYSLCSTLTLSKADYEKHKVYACEVTHQGLSSPVTKSFNRGES
B3: OKT4: anti-CD4 humanized OKT4 bDS Fab, SEQ ID NO: 74 and 75 (antibody)
heavy: EVQLVESGGGLVQPGGSLRLSCAASGFTFSNYAMSWVRQAPGKRLEWVSAISDHSTNTYYPDSVKGRFTISRDNAKNTLYLQMNSLRAEDTAVYYCARKYGGDYDPFDYWGQGTLVTVSSASTKGPSVFPLAPSSKSTSGGTAALGCLVKDYFPEPVTVSWNSGALTSGVHTCPAVLQSSGLYSLSSVVTVPSSSLGTQTYICNVNHKPSNTKVDKKVEPKSSDKTHTCHHHHHH
light: DIQMTQSPSSLSASVGDRVTITCQASQDINNYIAWYQHKPGKGPKLLIHYTSTLQPGIPSRFSGSGSGRDYTLTISSLQPEDFATYYCLQYDNLLFTFGGGTKVEIKRTVAAPSVFIFPPSDEQLKSGTASVVCLLNNFYPREAKVQWKVDNALQSGNSQESVTEQDSKDSTYSLCSTLTLSKADYEKHKVYACEVTHQGLSSPVTKSFNRGES
B4: V1: anti-CD7 Nanobody, SEQ ID NO: 80 (protein)
VHH: DVQLQESGGGLVQAGGSLRLSCAVSGYPYSSYCMGWFRQAPGKEREGVAAIDSDGRTRYADSVKGRFTISQDNAKNTLYLQMNRMKPEDTAMYYCAARFGPMGCVDLSTLSFGHWGQGTQVTVSITGGGCHHHHHHHH
B5: 12D2: anti-CD3 12D2 bDS Fab, SEQ ID NO: 84 and 85 (antibody)
heavy: EVKLVESGGGLVQPGRSLRLSCAASGFNFYAYWMGWVRQAPGKGLEWIGEIKKDGTTINYTPSLKDRFTISRDNAQNTLYLQMTKLGSEDTALYYCAREERDGYFDYWGQGVMVTVSSASTKGPSVFPLAPSSKSTSGGTAALGCLVKDYFPEPVTVSWNSGALTSGVHTCPAVLQSSGLYSLSSVVTVPSSSLGTQTYICNVNHKPSNTKVDKKVEPKSSDKTHTCGGHHHHHH
light: QFVLTQPNSVSTNLGSTVKLSCKRSTGNIGSNYVNWYQQHEGRSPTTMIYRDDKRPDGVPDRFSGSIDRSSNSALLTINNVQTEDEADYFCQSYSSGIVFGGGTKLTVLSQPKAAPSVTLFPPSSEELQANKATLVCLVSDFYPGAVTVAWKADGSPVKVGVETTKPSKQSNNKYAACSYLSLTPEQWKSHRSYSCRVTHEGSTVEKTVAPAESS
B6: TRX2 ScFv: anti-CD8 TRX2 ScFv, SEQ ID NO: 98 (protein)
scFv: QVQLVESGGGVVQPGRSLRLSCAASGFTFSDFGMNWVRQAPGKGLEWVALIYYDGSNKFYADSVKGRFTISRDNSKNTLYLQMNSLRAEDTAVYYCAKPHYDGYYHFFDSWGQGTLVTVSSGGGGSGGGGSGGGGSGGGGSDIQMTQSPSSLSASVGDRVTITCKGSQDINNYLAWYQQKPGKAPKLLIYNTDILHTGVPSRFSGSGSGTDFTFTISSLQPEDIATYYCYQYNNGYTFGQGTKVEIKGGGSGGCGGHHHHHH

System: primary human NK cells
Assay: LNP transfection of co-cultured human T cells and NK cells: NK cells
Assay type: cell-based
Details: Lipid 8 LNP, 2.5 ug/mL mRNA, 24 hours
Experimental: CD3-depleted PBMCs were purified using magnetic-based CD3 positive selection and retaining of the negative fraction. 20 million CD3 depleted PBMCs were added to 1 well of a 6 well GREX plate in media containing 10 ng/mL IL-15 for 7 days. On day 7, each well was split in 2 and cells were cultured further in media containing 10 ng/mL IL-15 for an additional 7 days. On day 14, NK cells were concentrated to 1 million cells/mL in preparation for co-transfection with primary human T cells.
LNPs were prepared using the mixing process described in Example 6, the buffer exchange process described in Example 25. The LNPs were formulated using eGFP encoding mRNA (TriLink Biotechnologies, California, US), Lipid 8 as the ionizable lipid, and labeled with 0.01 mol % DiIC18(5)-DS (Invitrogen, Massachusetts, US). Fab-lipid conjugates generated from methods described in Example 4 while generation of Nb-conjugated differed in using 1:1:4 Nb:DSPE-SKPEG-maileimide:DSPE-2KPEG-OCH3 and a 50 kD UF membrane (Millipore Corp, Billerica, Mass. USA) for separation of Nb-conjugate from free Nb. Using methods similar to Example 12, conjugated Fabs and conjugated Nb were post-inserted at various densities (Table 41) into LNPs containing Lipid 8 and GFP mRNA with DiI dye. […]. […]
24 hours after LNP transfection, cell culture media was aspirated from T cell and NK cell co-cultures after centrifugation. […] Following acquisition by flow cytometry, T cells and NK cells were analyzed independently using FlowJo (flow cytometry analysis software). In either CD3+ cells (T cells) or CD56+ cells (NK cells), the frequency of GFP positive events relative to GFP negative events was calculated (FIG. 64A). Additionally, the overall fluorescence of GFP was quantified by assessment of mean fluorescence intensity (MFI, FIG. 64B). […] Together, these metrics enabled quantification of LNP transfection efficiency of all targeted LNPs tested in primary human T cell and NK cell co-cultures.

Molecule | transfection of NK cells in T/NK co-culture (% GFP, GFP MFI, DiI), in words
B1 | highly specific transfection of NK cells
B2 | highly specific transfection of NK cells

System: human CD3 T cells
Assay: Transfection of human CD3 T cells (CD8 and CD4 subsets) with Fab/Nb-targeted LNPs
Assay type: cell-based
Details: targeted Lipid 8 LNP (Lipid 5 in Example 43), GFP mRNA approximately 2.5 μg/mL, approximately 24 hr
Experimental: LNPs were prepared using the mixing process described in Example 6, the buffer exchange process described below in Example 21. Using methods similar to Example 12, hSP34 and TRX2 Fab-lipid conjugates and a non-T cell specific anti-HER2 lipid-conjugate (Nellis D F, Ekstrom D L, Kirpotin D B, Zhu J, Andersson R, Broadt T L, Ouellette T F, Perkins S C, Roach J M, Drummond D C, Hong K, Marks J D, Park J W and Giardina S L (2005) Preclinical manufacture of an anti-HER2 scFv-PEG-DSPE, liposome-inserting conjugate. 1. Gram-scale production and purification. Biotechnol Prog 21:205-220) were post-inserted at various densities (SP34 0.25-17 g/mol; TRX2 0.25-9 g/mol; SP34+TRX2 0.25-9 g/mol each conjugate; anti-HER2 17 g/mol) into LNPs containing Lipid 8 and anti-CD20 targeting CART mRNA. Transfections were performed with human CD3 T cells at approximately 2.5 μg/mL mRNA for approximately 24 hr. For FACS analysis T cells were stained with M1 antibody (Sigma, F3040) that bind a N-terminus FLAG-tag variant sequence on the TTR-023 CAR (sequence provided below) in addition to staining for CD69 (Biolegend, 310930) and CD4 (Biolegend, 344648) to differentiate CD8 from CD4 cells.
LNPs were prepared using the mixing process described in Example 6, the buffer exchange process described in Example 21. Using methods similar to Example 12, hSP34, TRX2, and Ibalizumab Fab-lipid conjugates and a non-T cell specific anti-HER2 lipid-conjugate were post-inserted at various densities (specified in FIGS. 20A and 20B into LNPs containing Lipid 8 and Cy5/GFP mRNA. Transfections were performed with human CD3 T cells at approximately 2.5 μg/mL mRNA for approximately 24 hr and stained for CD69 (Biolegend, 310930) and CD4 (Biolegend, 344648) to differentiate CD8 from CD4 cells by FACS analysis.
LNPs were prepared using the mixing process described in Example 6, the buffer exchange process described in Example 21. Conjugates were generated using a method similar to that of Example 4 except 0.025, 0.1, 0.5 mM TCEP was used for hSP34 DS, 0.025, 0.2, 2 mM TCEP was used for hSP34-hlam NoDS (interchain disulfide knockout) for reduction prior to conjugation and the conjugation reactions were performed at 37 C for 2 hr. SDS-PAGE (FIGS. 65A, 65B) was performed using the manufacturers recommended conditions with 1 ug of protein (Thermo, 4-12% Bis-Tris MiniGel). RP-HPLC (FIGS. 65C, 65D) was performed using an Agilent 300 SB-C8 at 0.5 mL/min with a column temperature of 60° C., Mobile Phase A: Water with 0.1% TFA, Mobile Phase B: Acetonitrile with 0.1% TFA, Gradient % B: 0 min 5%, 1 min 5%, 6.5 min 95%, 8 min 95% injecting 10 ul with a target of 1-25 ug of protein. Using methods similar to Example 12, ant-CD3 hSP34 (with and without natural interchain disulfide, DS (with interchain disulfide) vs. NoDS (without interchain disulfide), see sequences below) PEG-lipid conjugated Fabs were post-inserted at various Fab densities (6, 12, 17 g Fab/mol total lipid) into LNPs containing Lipid 8 and Cy5/GFP mRNA. Transfections were performed with human CD3 T cells at approximately 2.5 μg/mL mRNA for approximately 24 hr. Levels of transfection of CD3 T cells was measured by flow cytometry.
LNPs were prepared using the mixing process described in Example 6, the buffer exchange process described in Example 21. Conjugates were generated using a method similar to that of Example 4 except 0.1 mM TCEP was used for reduction prior to conjugation and the conjugation reaction was performed at 37 C for 2 hr. […]

Molecule | % GFP transfection and GFP expression (MFI) of CD8 and CD4 T cells, in words
B3 | highly specific LNP transfection and protein translation of CD4+ T cells versus CD8+ T cells
B4 | 3.4K PEG mediated higher transfection and expression than the 5K PEG
B5 | can efficiently transfect both CD8 and CD4 T cell subsets
B6 | slightly lower % transfection (FIG. 82A) and GFP expression levels (FIG. 82B) in the CD8 T cell subset relative to the anti-CD8 TRX2 NoDS Fab
